Measurements: PMC2880790, “Solution Structure and Characterisation of the Human Pyruvate Dehydrogenase Complex Core Assembly” (Journal of Molecular Biology, 2010)

T1: bovine heart E2 of the native bovine PDC core (bE2/E3BP) (bovine, UniProt P11180 87-647)
T1 construct: E2 (dihydrolipoamide acetyltransferase) of bovine heart pyruvate dehydrogenase complex, native; also called E2 of bE2/E3BP; source: purified from bovine heart PDC (sucrose gradients in 2 M NaCl), as bE2/E3BP core
T1 sequence (looked up): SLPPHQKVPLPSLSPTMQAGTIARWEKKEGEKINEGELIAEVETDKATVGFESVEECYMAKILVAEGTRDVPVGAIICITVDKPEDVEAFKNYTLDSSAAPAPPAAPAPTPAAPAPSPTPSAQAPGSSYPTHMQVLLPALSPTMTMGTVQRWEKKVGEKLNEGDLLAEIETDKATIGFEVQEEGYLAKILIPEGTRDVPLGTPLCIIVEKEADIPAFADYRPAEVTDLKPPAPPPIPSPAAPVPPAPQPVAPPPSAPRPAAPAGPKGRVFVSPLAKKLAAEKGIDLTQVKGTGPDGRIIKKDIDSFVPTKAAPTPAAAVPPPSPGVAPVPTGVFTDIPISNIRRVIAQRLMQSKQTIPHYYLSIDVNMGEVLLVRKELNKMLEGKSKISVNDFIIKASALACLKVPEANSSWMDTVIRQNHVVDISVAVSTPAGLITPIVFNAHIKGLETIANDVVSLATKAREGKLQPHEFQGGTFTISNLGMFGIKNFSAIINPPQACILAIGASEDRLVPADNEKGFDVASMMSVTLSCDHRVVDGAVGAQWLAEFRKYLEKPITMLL


Assays:
[1] = target: the molecule itself; assay: AUC; sedimentation velocity of the cores; 76-306 nM rE2/E3BP, 60-260 nM rE2, 116-730 nM tE2/E3BP; PEBS100 buffer (2 mM EDTA, 100 mM NaCl, 50 mM KH2PO4, pH 7.5); 20,000 rpm, 4 °C; interference optics
[2] = target: T1, bovine heart E2 of the native bovine …; assay: SAXS; beamline X33 EMBL/DESY; PEBS100 buffer; 830.9 nM rE2/E3BP and 183.1 nM bE2/E3BP used for ab initio modelling (GASBOR, icosahedral symmetry); settings: both partners purified

Binder	stoichiometry N [1]	binding result [2]
recombinant full-length E2-only PDC core (rE2); dihydrolipoamide acetyltransferase of human pyruvate dehydrogenase complex (enzyme, UniProt P10515 87-647, looked up, E2 (dihydrolipoamide acetyltransferase) of the human pyruvate dehydrogenase complex, full-length recombinant; monomer printed as 61 kDa; 60-mer mass from composition 3,741,780 Da; Cultures were supplemented with lipoic acid on induction; source: E. coli BL21 star (DE3), pET14b, purified (zinc chelate, anion exchange, gel filtration); not shown: His tag, N-terminal, kept; copies: 60) SLPPHQKVPLPSLSPTMQAGTIARWEKKEGDKINEGDLIAEVETDKATVGFESLEECYMAKILVAEGTRDVPIGAIICITVGKPEDIEAFKNYTLDSSAAPTPQAAPAPTPAATASPPTPSAQAPGSSYPPHMQVLLPALSPTMTMGTVQRWEKKVGEKLSEGDLLAEIETDKATIGFEVQEEGYLAKILVPEGTRDVPLGTPLCIIVEKEADISAFADYRPTEVTDLKPQVPPPTPPPVAAVPPTPQPLAPTPSAPCPATPAGPKGRVFVSPLAKKLAVEKGIDLTQVKGTGPDGRITKKDIDSFVPSKVAPAPAAVVPPTGPGMAPVPTGVFTDIPISNIRRVIAQRLMQSKQTIPHYYLSIDVNMGEVLLVRKELNKILEGRSKISVNDFIIKASALACLKVPEANSSWMDTVIRQNHVVDVSVAVSTPAGLITPIVFNAHIKGVETIANDVVSLATKAREGKLQPHEFQGGTFTISNLGMFGIKNFSAIINPPQACILAIGASEDKLVPADNEKGFDVASMMSVTLSCDHRVVDGAVGAQWLAEFRKYLEKPITMLL	60	–
bovine heart E3BP of the native bovine PDC core (bE2/E3BP) (natural protein, UniProt P22439 54-501, looked up, also called E3BP of bE2/E3BP; source: purified from bovine heart PDC (sucrose gradients in 2 M NaCl), as bE2/E3BP core) ADPIKILMPSLSPTMEEGNIVKWLKKEGEAVSAGDALCEIETDKAVVTLDASDDGILAKIVVAEGSKNIRLGSLIGLLVEEGEDWKHVEIPKDTGPPPPAAKPSVPPPSAEPQIATPVKKEHPPGKVQFRLSPAARNILEKHALDANQGTATGPRGIFTKEDALKLVQLKQTGKITEPRPTAALPTTPAAPLPPQAAATASYPRPMIPPVSTPGQPNVEGTFTEIPASNIRRVIAKRLTESKSTIPHAYATTDCDLGAVLTARQNLVRDDIKVSVNDFIIKAAAVTLKQMPNVNASWDGEGAKQLPSIDISVAVATDRGLITPVIKDAAAKGLQEIADSVKALSKKARDGKLLPEEYQGGSFSISNLGMFGIDEFTAVINPPQACILAVGRFRPVLKLTQDEEGNAQLQQRQLITVTMSSDSRVVDDELATRFLESFKANLENPLRLA	–	binds
